According to the nanobody polyreactivity screen of Harvey et al. (2022):

Test: yeast display, Sf9 membrane polyspecificity reagent, FACS + sequencing; frameworks hold sequencing errors
Outline: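 Synthetic nanobody libraries on Saccharomyces cerevisiae BJ5465 were galactose-induced for 36–48 hours, stained 1 hour at 4 °C with 10% biotinylated, detergent-solubilized Sf9 membrane reagent and enriched on streptavidin microbeads. FACS then separated cells into low and high (top ~1%) gates by anti-HA (expression) and streptavidin (reagent binding) fluorescence. Genes were colony-PCR amplified, MiSeq 2 × 250 sequenced and CDR-length filtered. A clone's polyreactivity label is that of its gate of origin.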

| Sequence | polyreactivity (PSR sort gate) |
| --- | --- |
| QVQLQESGGGLVQAGGSPRLSCAESDNIYPDSVICWYRQAPGKERELVATIGFGATTNYADSVKGRLTISRDNAKNTVYLQMNSLKPEDTAVYYCAADPLNYEYFCYWGQGTQVTVSS | low polyreactivity |
| QVQLQESGGGLVQAGGSQRLSCAASGYIFYFQYMGWYRQATGKEREFVAAISDGANTNYADSVKGRFTISRDNAKNTEYLQMNSLKPEDTAVYYCAVYADENYYFIYWGQGTQVTVSS | low polyreactivity |
| QVQLQESGGGLVQAGGTLRLSCAASGSFSADEDMGWYRQAQGKESEFVAGISVGGNTNYADSVKGRFTISRENAKNTVYLQINSLKPEDTAVYYCAVLQDVYDALDYWAQGTQVTVSS | high polyreactivity |
| QVQLQESGGGLVQAVGSLRLSCAASGNISDYYDMGWYRQAPGKERKIVAGIDFGAITNYADSVKGRFTISRDNAKNTEYLQMSSLKPEDTAVYYCAAGVYDWYAYDYWGQGTQVTVSS | high polyreactivity |
| QVQLQESGGGLVQEGGSLRLSCAESGNISPQADMGWYRQAPGKERELVASIGTGGTTNYADSVTGRFTISRDNAKNTVYLQMNSLKPDDTAFYYCAAVRYEYNPYDYWGQGTQVTVSS | low polyreactivity |
| QVQLQESGGGLVQGGGSLRLSCAASGSIYRYWYMGWYRQAPGKERELVASITEGATTNYAYSVKAALPLAAITRNTVYLQMDSMKPEDTAVYYRAASFGSTYDLVYWGQGTQVTVSS | high polyreactivity |
| QVQLQESGGGLVQPGGSLRLSCAASGYISSWYPMGWYPQAPGKEREFVATIAPGATTYYADSVKGRFTISRDYANNTVYLQMNSLKPEDTAVYYLAAGPENKDFYSYWCQGTQVTVSS | low polyreactivity |
| QVQLQESGGGLVQVGGSQRLSCAASGNIFFNYAMGWYRHAQGKEREFDASINHGTSINYEDSVKGRFTISRDNAKNTVYLQMNSLKPEDTAVYYCAADLSWTDNLFYWGQGTQVTVSS | low polyreactivity |
| QVQLQESGGGLVQVGVSQRLSCAASGNIFYNYAMGWYRHAQGKEREFDATINHCTSINYADSVKGLFTISRDNAKKTVYLQMNSLKPEDTAVYYCAADLSWTDNLFYWGQGTQVTVSS | low polyreactivity |
| QVQLQESGGGQVQAGGSLRLSCAASGYISTHYFMGWYRQAPGKDREFVAGISNGSITNYADSVKGRFTISRDNARNTVYLQMNSLKPEDTAVYYGAAFEWTYVRFGYWGQGTQVTVSG | high polyreactivity |
| QVQLQESGGGQVQAGGSLRWSCAASGYISTHYFMGWYRQAPGKDREFVAGISNGSITNYADSVKGRFTISRDNARNTVYLQMNSLKPEDTAVYYVAAYQWTYVRFGYWGQGTQVTVSG | high polyreactivity |
| QVQLQESGGHLEQSGGSLRLSCTASGTISDVRVMGWYRQAPGKERELVATISYVTITYYADSVKGRFTISRDSEKHRVSADDEPETGRYRGVLLRYYWGLGTQVTVSS | low polyreactivity |
| QVQLQESGGLVQAGGLRLSCAASGSVSYQEAMGWYRQAPGKERELVATISFGANTNYADSVKGRFTISRDNAKNTVYLQMNSLKPEDTAVYYCAADAYRWWVRYDYWGQGTQVTVSS | low polyreactivity |
| QVQLQESGGLVQAGGLRLSCAASGSVSYQEAMGWYRQAPGKERELVATISFGANTNYAESVKGRFTISRDNAKISLYLQMNSLQPEDTSLYYWAAECLFDDYYGYWGQGTQVTVSS | low polyreactivity |
| QVQLQESGGLVQAGGLRLSCAASGSVSYQEAMGWYRQSPGKERELVATISFGANTNYADSVKGRFTISRDNAKNTVYLQMNSLKPEDTAVYYCAAESLFDDYYGYWGQGTQVTVSS | low polyreactivity |
| QVQLQESGGLVQAGGSLRLSCAASGSISGRNVMGWYRQAPGKEREFVASITDGSSTNDADSVIGRFTISRDNAKNTVYLQMNSLKPKDTAVYYCAAYAHRAKSFGYWGRGTQVTVSS | low polyreactivity |
| QVQLQESGGRLVQAGGSLRLSCAPSGDILEADDMGWYRQAPGKERELVASITDGGSTNCADSMKGRSTICRDNAKITVYLQMNSLKPEDTAVYYCAADAWDLYSDGQEYNYWGQGTQVTVSS | high polyreactivity |
| QVQLQESGGSLVQAGGILRLSCAACGNIFPSAVMGWYRQALGKEREFVATINSGSYTYYADSVKVRFTISRDNAKNTVYLQMNSLKLDDSAVYYCAAYFKLPAWHTYWGQGTQVTVSS | low polyreactivity |
| QVQLQESGGVLVQAVDRQRLSCAASGNIFLFTDMGWYRQAPGKERELVAAINAGSTTYYADSVKGRFTISRDNAKNTVYLQMNSLNPEDTEVYYCAVYYLGSGTFGYWGQGAQVTVSS | high polyreactivity |
| QVQLQESGGVQAGGSLRLSCAASGYISRSDVMGWYRQAPVKERELVATINNGTLTYYADSVKGRFTISRDNAKNTVYLQMNSLKPEDTPVHYCAVLQSDTDSLYYWGQGSQVTVSS | low polyreactivity |
| QVQLQESGRGLVQAGGSLLSCAASGTISWVDEMGWYRHAPGNERELVAGIAGGGNTNYADSLKGRFTISRDNAKNTVYLHMNSQDTAVYYCAVVVFGRGTHIYWCQGTQVTVSS | high polyreactivity |
| QVQLQESGRRPGAAGGSPRMSCAASGNIFCVAVMGRYRQAPGKERELVASIGFGCTTYYADSVKCRFTISRDNAKNTVYLQMFSLKPEDTAVYYCAAPHYDWGELDYWGQGTQVPVSS | low polyreactivity |

| Sequence | polyreactivity (PSR sort gate) |
| --- | --- |
| QVQLQESGRRPGAAGGSPRMSCAASGNIFWVAVMGRYRQAPGKERELVASIGFGCTTYYADSVKCRFTISRDNAKKTVYLQMISLKPEDTAVYYCAAPNYDWGELDYWGQGTQVPVSS | low polyreactivity |
| QVQLQESGSGLVQAGGSLRLSCAASGNISHYNDMGWYRQAPGKEREPVATINSGSITYYADSVKGRFTISRDNAKNTVYLQMNSLKPEDTAVYYCAVKQHGYFYLDYWGQGTQVTVSS | high polyreactivity |
| QVQLQESGVGLVQASGSIFHEPNMGSYRQAPGKERELVAGISSGANTYYADSVKGRFTISRDNAKNTVYLQMNSLKPEDTAVYHCAVVVHLYTDLRYWGQDTQVTVSS | high polyreactivity |
| QVQLQESRGGLVKAGGSLRLSCAATGNISPRDAMGWYRQAPGEERDLVASNAYSAITYYADGVKGRYTISRDNAKNTVYLQMNSLKPEDTEVYYCAVYQFTYPVFPAYWGQGTQVTVSS | low polyreactivity |
| QVQLQESRGGLVQAGGSLRLSCAASGTISDRAGMGWYRQAPAKNAIVATIDRGTNTNYADSVKGRFTISRDNAKNTVYLQMNSLKPEDTAVYNCAADGRYYIYLDYWGQGTQVTVSS | low polyreactivity |
| QVQLQESSGGLVQAGGSLRMSCAASGTIFHFHIMGWYRQAPGKESEFVAAISYGTSTYYADSVKGRFTISRDNAKNTVYLQMNSQKPEDSAVNYCAVYDYLEVYCWYWGQGTQVTVSS | low polyreactivity |
| QVQLQESVDGLVQAGGSLSLSSAASGTIFSDYGMGGYRQAPGKERELLAGISDGCNTNYTDSVKGRCTISRDNAHRVSADEQPETGGYRGVLLRGSERWLLFYVYWGQGTQVTVSS | high polyreactivity |
| QVQLQESVGGLVQAGGSLRLSCAASGNIFPTDRMGWYRQAPGKELEFVATISDGGSTNYADSVKGRFTISRDNAKNTVYLQMNSLKPEDTAVYYCAVWSLGRWRHYYWGQGTQVTVSS | low polyreactivity |
| QVQLQESVGGLVQAGGSLRLSCAASGNIFPTDRMGWYRQAPGKELEFVATISHGGSTNYADSVKGRFTISRDNAKNTVYLQMNSLKPEDTAVYYCAVWSLGRWRHYYWGQVTQVTVSS | low polyreactivity |
| QVQLQESVGGLVQAGGTLRMSCAASGSFSADEDMGWYRQAQGKEREFVAGISVGGNTNYADSVKGRFTISRENAKNTVYLQINSLKPEETAVYYCAADYKPTSRSNTYYYWGQGTQVTVSS | high polyreactivity |
| QVQLQGSGGGLVQAGGSLRLSCAASGYNFQNVPMGWNRQAPGKERELVAGIDNGTSTNYADSVNGRFTISRDNAKNTVYLQMNSLKPEDTAVYYCAAAGQADDTLGYWGQGTQVTVSS | low polyreactivity |
| QVQLQVSGGDLVQAGGSLRLSCAASGTIYGLISMGWYRQAPGKEREFVAAITDGGNTNYADSVKGRFTISRDNAKYTVYLQMISLKPEDTAVYYCAVLFSDDAYYAYWGQGTQVTVSS | low polyreactivity |
| QVQLQVSGGGLVQAGGNLRLSCAASGTISDSVGMGWYRQAPGKEREFVAGITLGGITNYADSVRGRFTISRDNGKNLYLQMKSLKPEETAVYYCAVDDYRYINYEFWGQGTQVTVSS | high polyreactivity |
| QVQLQVSGGGLVQAGGNLRLSCASSCTISESFGMGWNRQAPGKEREFVAGITMGGITNYADSVRGRFTISRDNAKNMYLQMNSLKPEDTAVYYCEVDDYRYINYEFWGQGTQVSVSS | high polyreactivity |
| QVQLQVSGGVLVQAGGSLRLTCAASGSIFLTSEMGWYRQAPGKERELVAAIATGTSTNYADSVKGRFTISRDNAKNTVYLQMNSLKPEDTAVYYCETYHYWGQGTQVTVSS | low polyreactivity |
| QVQLRESGCGLVQAGGNLRLSCAARGNIFDADIMGWYRQAPGKERELVASITDGGSTNYADSVRCRFTISRDNAKNTVYLQMNSLKPEDTAVYYCTAIAYPDIPTYFDHDSDYFYWGQGTQVTVSS | high polyreactivity |
| QVQLVASAGGLVQAGGSLRFSCAASGRSFKRYTMGWYRQAPGKERELVAAITKRADRTNYADSVKGRFTISRDNAKNTVYLQMNSLKPEDTAVYYCYADGQNDLPSNGYISYKYDYWGQGTQVTVSS | low polyreactivity |
| QVQLVASGGGLDQAGGSLRLSCAASGFPFQENAMGWYRQAPGKERELVAAISYGGGSPSYADSVKGRFTISRDNAKNTVYVQMNSLKPEDNAVYYCAADGGSAYAWYFAELYGYWGQGTQVTVSS | low polyreactivity |
| QVQLVASGGGLLQAGGSLRLSCAASGSIVGLYAMGWYRQAPGNETELVAAISWSAGRTYYADTVKGRFTISRDNAKNTVYLQMNSLIPEETAVYYCNAPYLHYVFVFTDYSQRYDYWGQGTQVTVSS | high polyreactivity |
| QVQLVASGGGLVQAGGSLRLSCAASGSIFSYYTMGWYSQAPGKERELVASISRSGGRTNYADSVKGRFTISRDNAKNTVYLQMNSLKPEDTAVYYCKTERWGPYPHKRYNYWGQGTQVTVSS | high polyreactivity |
| QVQLVASGGGLVQAGGSLRLSCAASGSISFYNAMGWYRQAPGKERELVAAINRSGGSTNYADSVKGLFTISRDNGKNTVYLQMNSLKPEDTAVYYCAAVSSKGNRHVYDYWGQGTQVTGSS | low polyreactivity |
| QVQLVASGGGLVQAGGSLRLSCAASGSTFYYNAMGWSRQAPGKERELVAVISTSDGSTNYADSVKRRFTISSDNAKNTVYLQMISLKPEDTAVYYCAADYSESRRFDYWGQGTQVTVSS | low polyreactivity |
